Laboratory results: PMC5650612, “Enhancing Tropane Alkaloid Production Based on the Functional Identification of Tropine-Forming Reductase in Scopolia lurida, a Tibetan Medicinal Plant” (Frontiers in Plant Science, 2017)

Tested on: CN1[C@@H]2CC[C@H]1CC(=O)C2
Experiment: purified protein
Details: pH 6.4

**Q.** For SlTRI (Anisodus luridus), which Km is on record?
**A.** The Km was 40.90 ± 7.059 mM.

**Q.** What about the Vmax of the same substance?
**A.** The Vmax was 1.95 µmol/min/mg.

**Q.** And the kcat/Km?
**A.** The kcat/Km was 24 M⁻¹ s⁻¹.
